Measurements as given in US10064939B2, “Combination therapy using c-Met inhibitor and IGF-1R inhibitor for c-Met inhibitor resistant cancers” (Samsung Electronics Co., Ltd., priority 2014, dated 2018).

B1: L3-1Y/IgG2: anti-c-Met antibody: huAbF46-H4-A1 variable regions, human IgG2 hinge and constant region, human kappa light chain with His36Tyr (antibody)
heavy: EVQLVESGGGLVQPGGSLRLSCAASGFTFTDYYMSWVRQAPGKGLEWLGFIRNKANGYTTEYSASVKGRFTISRDNSKNTLYLQMNSLRAEDTAVYYCARDNWFAYWGQGTLVTVSSASTKGPSVFPLAPCSRSTSESTAALGCLVKDYFPEPVTVSWNSGALTSGVHTFPAVLQSSGLYSLSSVVTVPSSNFGTQTYTCNVDHKPSNTKVDKTVERKCCVECPPCPAPPVAGPSVFLFPPKPKDTLMISRTPEVTCVVVDVSHEDPEVQFNWYVDGVEVHNAKTKPREEQFNSTFRVVSVLTVVHQDWLNGKEYKCKVSNKGLPAPIEKTISKTKGQPREPQVYTLPPSREEMTKNQVSLTCLVKGFYPSDIAVEWESNGQPENNYKTTPPMLDSDGSFFLYSKLTVDKSRWQQGNVFSCSVMHEALHNHYTQKSLSLSPGK
light: DIQMTQSPSSLSASVGDRVTITCKSSQSLLASGNQNNYLAWYQQKPGKAPKMLIIWASTRVSGVPSRFSGSGSGTDFTLTISSLQPEDFATYYCQQSYSRPYTFGQGTKVEIKRTVAAPSVFIFPPSDEQLKSGTASVVCLLNNFYPREAKVQWKVDNALQSGNSQESVTEQDSKDSTYSLSSTLTLSKADYEKHKVYACEVTHQGLSSPVTKSFNRGEC
B2: scFv of huAbF46: scFv of structure VH-linker-VL from heavy and light chain variable regions of huAbF46 (protein)
scFv: EVQLVESGGGLVQPGGSLRLSCAASGFTFTDYYMSWVRQAPGKGLEWLGFIRNKANGYTTEYSASVKGRFTISRDNSKNTLYLQMNSLRAEDTAVYYCARDNWFAYWGQGTLVTVSSGLGGLGGGGSGGGGSGGSSGVGSDIQMTQSPSSLSASVGDRVTITCKSSQSLLASGNQNNYLAWHQQKPGKAPKMLIIWASTRVSGVPSRFSGSGSGTDFTLTISSLQPEDFATYYCQQSYSAPLTFGQGTKVEIKR

What was measured:
[1] = test system: MKN45 re#1 gastric cancer cells; assay: Cell proliferation, CellTiter Glo assay, anti-c-Met antibody resistance induced cell line MKN45 re#1; type: cell-based; conditions: 72 hours; for cell proliferation inhibition effect: single treatment: L3-1Y/IgG2 (2 μg/ml) only or linsitinib (10 uM) only, FIG. 7
Experimental: (§1) In particular, in order to obtain anti-c-Met antibody resistant MKN45 gastric cancer cells, MKN45 gastric cancer cells were administered with L3-1Y/IgG2 for at least 3 months by increasing the administration concentration. The amount of L3-1Y/IgG2 administered was increased from 1 μg/ml to 10 μg/ml, until resistance to L3-1Y/IgG2 is induced. The obtained L3-1Y/IgG2 resistant clones were named as MKN45re#1 and MKN45re#24, respectively.
(§2) In order to confirm the acquisition of resistance to L3-1Y/IgG2, the prepared L3-1Y/IgG2 resistant clones (MKN45 re#1 and MKN45 re#24) and MKN45 with no resistance were administered with various concentrations of L3-1Y/IgG2 (see FIG. 9). 72 hours after the antibody administration, the number of living cells was measured through CellTiter Glo assay (Promega, G7573).
(§3) The prepared L3-1Y/IgG2 resistance induced cell lines MKN45re#1 and MKN45re#24 were co-administered with L3-1Y/IgG2 and an IGF-1R inhibitor, to examine changes in cell proliferation of the L3-1Y/IgG2 resistance induced cell lines. Each of the L3-1Y/IgG2 resistant MKN45re#1 and MKN45re#24 cell lines was seeded on a 96-well plate at the amount of 10000 cells/well (medium: RPMI (GIBCO); culture conditions: 5% CO2 and 37° C.), and on the next day, treated with L3-1Y/IgG2 (2 μg/ml) and linsitinib (10 uM) together. 72 hours after the co-treatment, the number of living cells was counted by CellTiter Glo assay (Promega, G7573). For comparison, the same experiments were conducted using a control group with no treatment of L3-1Y/IgG or linsitinib, a group treated with L3-1Y/IgG (2 μg/ml) only, and a group treated with linsitinib (10 uM) only.

[2] = test system: MKN45 re#24 gastric cancer cells; assay: Cell proliferation, CellTiter Glo assay, anti-c-Met antibody resistance induced cell line MKN45 re#24; type: cell-based; conditions: 72 hours; for cell proliferation inhibition effect: single treatment: L3-1Y/IgG2 (2 μg/ml) only or linsitinib (10 uM) only, FIG. 8
Experimental: as §1, §2, §3

MKN45 cells = assay: Cell proliferation, non-resistant MKN45 cells; type: cell-based
Experimental: as §2

Hs746T cell line = assay: Anticancer effect of anti-c-Met antibody used alone, Hs746T; type: cell-based
SNU-5 cell line = assay: Anticancer effect of anti-c-Met antibody used alone, SNU-5; type: cell-based
SNU-668 cell line = assay: Anticancer effect of anti-c-Met antibody used alone, SNU-668; type: cell-based
YCC-11 cell line = assay: Anticancer effect of anti-c-Met antibody used alone, YCC-11; type: cell-based
c-Met = c-Met (Homo sapiens, UniProt P08581); assay: Specificity of expressed scFv to c-Met; type: binding; conditions: after expression
Chain of c-Met (P08581 25-1390): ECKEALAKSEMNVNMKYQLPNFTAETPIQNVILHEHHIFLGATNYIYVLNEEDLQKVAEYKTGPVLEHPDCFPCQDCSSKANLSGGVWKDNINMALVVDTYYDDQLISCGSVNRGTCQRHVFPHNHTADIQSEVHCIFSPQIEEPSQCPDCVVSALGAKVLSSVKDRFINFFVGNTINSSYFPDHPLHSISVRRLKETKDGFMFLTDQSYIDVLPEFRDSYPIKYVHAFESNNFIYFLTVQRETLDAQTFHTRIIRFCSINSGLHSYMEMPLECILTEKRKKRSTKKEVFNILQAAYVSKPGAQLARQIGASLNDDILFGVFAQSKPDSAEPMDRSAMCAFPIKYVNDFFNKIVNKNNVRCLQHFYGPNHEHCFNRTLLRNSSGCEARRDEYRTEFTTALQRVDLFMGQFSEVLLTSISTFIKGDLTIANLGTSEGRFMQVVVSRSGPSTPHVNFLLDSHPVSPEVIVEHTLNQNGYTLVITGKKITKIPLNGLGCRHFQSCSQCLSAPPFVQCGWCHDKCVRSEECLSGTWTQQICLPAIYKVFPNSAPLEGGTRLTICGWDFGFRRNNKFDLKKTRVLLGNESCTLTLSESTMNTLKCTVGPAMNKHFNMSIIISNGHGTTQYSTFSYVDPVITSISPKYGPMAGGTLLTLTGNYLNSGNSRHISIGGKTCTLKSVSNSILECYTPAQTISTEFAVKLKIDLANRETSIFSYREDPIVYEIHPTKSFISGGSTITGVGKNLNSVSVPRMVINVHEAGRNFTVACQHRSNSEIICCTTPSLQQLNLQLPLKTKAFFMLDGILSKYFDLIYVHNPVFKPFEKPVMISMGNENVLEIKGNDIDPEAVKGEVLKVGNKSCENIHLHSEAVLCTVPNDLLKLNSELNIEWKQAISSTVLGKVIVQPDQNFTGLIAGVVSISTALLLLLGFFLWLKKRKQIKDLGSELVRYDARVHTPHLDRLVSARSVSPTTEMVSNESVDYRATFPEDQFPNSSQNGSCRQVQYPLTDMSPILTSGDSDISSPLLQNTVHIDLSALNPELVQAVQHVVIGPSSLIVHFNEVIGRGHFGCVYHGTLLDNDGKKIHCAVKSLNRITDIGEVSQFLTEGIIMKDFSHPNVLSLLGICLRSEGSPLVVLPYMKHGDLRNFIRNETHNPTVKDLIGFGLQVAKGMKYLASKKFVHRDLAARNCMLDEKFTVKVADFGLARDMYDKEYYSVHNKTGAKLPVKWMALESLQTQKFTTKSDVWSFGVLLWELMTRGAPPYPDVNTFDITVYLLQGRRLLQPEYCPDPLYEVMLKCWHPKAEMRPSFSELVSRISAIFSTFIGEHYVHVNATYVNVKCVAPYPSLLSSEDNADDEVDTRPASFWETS
Excerpt: For use in constructing an scFv of the huAbF46 antibody from the heavy and light chain variable regions of the huAbF46 antibody, a gene was designed to have the structure of “VH-linker-VL” for each of the heavy and the light chain variable region, with the linker including the amino acid sequence “[…]” (SEQ ID NO: 54). A polynucleotide sequence (SEQ ID NO: 55) encoding the designed scFv of huAbF46 was synthesized in Bioneer and an expression vector for the polynucleotide had the nucleotide sequence of SEQ ID NO: 56.

[3] = various, increasing concentrations of L3-1Y/IgG2, FIG. 9

Molecule	cell proliferation inhibition effect [1]	cell proliferation inhibition effect [2]	proliferation (number of living cells) [1, 3]	proliferation (number of living cells) [2, 3]	effect (cancer cell proliferation inhibition effect) when administered alone (MKN45 cells)	anticancer effect when used alone (Hs746T cell line)	anticancer effect when used alone (SNU-5 cell line)	anticancer effect when used alone (SNU-668 cell line)	anticancer effect when used alone (YCC-11 cell line)	specificity to c-Met (c-Met)
CC1(O)CC(c2nc(-c3ccc4ccc(-c5ccccc5)nc4c3)c3c(N)nccn23)C1 (stereo not drawn) [linsitinib, 3-[8-Amino-1-(2-phenyl-7-quinolyl)imidazo[1,5-a]pyrazin-3-yl]-1-methyl-cyclobutanol, reference compound]	no cell proliferation inhibition effect	no cell proliferation inhibition effect								
B1	no cell proliferation inhibition effect	no cell proliferation inhibition effect	not inhibited	not inhibited	exhibits its effect	exhibits anticancer effect	exhibits anticancer effect	does not exhibit anticancer effect	does not exhibit anticancer effect	
B2										exhibit specificity to c-Met
